Assay: yeast display, Sf9 membrane polyspecificity reagent, FACS + sequencing; frameworks hold sequencing errors
Procedure, shortened: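 In a synthetic yeast display library (Saccharomyces cerevisiae BJ5465), nanobody expression was induced with galactose for 36–48 hours. FACS gates were set low and high (top ~1%) using anti-HA fluorescence for expression and streptavidin fluorescence for binding of the Sf9 membrane reagent. Each polyreactivity label is drawn from the gate of origin.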

Row | Sequence | polyreactivity (PSR sort gate)
1 | QVQLVESGGGLVQAGGRLRRICAASGRIYSRYTMGWYRQAPGKERQLVAVITSGGSTYYADSVKGRFTISRDNAKNTVYLQMNSLKPDDTAVYYCNAVRFTYGGYLRRYDYWGHGTQVTVSS | high polyreactivity
2 | QVQLVESGGGLVQAGGSLRLSCAASGRIFWVYAMGWYRQAPGKERELVAAIDWSDGITYYADSVKGRFTISRDNAKNTVYLQMNSRKPEDTAVYYCGAEYVIYQTYNYWGQGTQVTVSS | high polyreactivity
3 | QVQLVESGGGLVQAGGSLRLSCAASGRTFGRYAMGWYRQAPGKERELVAAINSGSASTYYADSVKGRFTISRDNAKNTVYLEMNSLKPEDPAVYYCAKRVQQSTWYGYGIGYEYWGQGTQVTVSS | high polyreactivity
4 | QVQLVESGGGLVQAGGSLRLSCAASGLTFWYYAMGWYRQAPGKERELVAAITISGGSTYYADSVKGRFTISRDNAKNTVYLQMNRLQPEDTAVYYCAKTFSYTGRYWGYDYWGKGTQVTVSS | high polyreactivity
5 | QVQLVESGGGLVQAGGSLRLSCAASGSIFYFNVMGWYRQAPGKERELVATITWRDASTNYADSVKARFTISRDNAKNTVYLQMNSLKPEDTAVYYCNADSDWGYFDYDYYYWGQGTEVTVSS | low polyreactivity
6 | QVHLVESGGGLVQAGGSLRLSCAASGITVGSYAMGWYRQAPGKERELVAAITSGGGTNYADSVKGRFTISRDNAKNTVYLEMKSLKPEDTAVYYCAARYYYLGTRYGYWGQGTQVTVSS | low polyreactivity
7 | QVQLVESGGGLVQAGGSLRLSCAASGITLSIYAMGWYRQAPGKERELVAAINGNGGSTYYADSVKGRFTISRDNAKNTVYLQMNSLKPEDTAVYYCAVTDYVYEHDDYWGQGTQVTVSS | low polyreactivity
8 | QVQRVESGGGLVQAGGSLRLSCAASGFIFWRYAMGWYRQAPGKERELVATITSSGGTTHYADSVKGRFTISRDNAKNTVYLQMNSLKPEDTAVYYCAKALVVQYGRYTGHPYDYWGQGTQVTVSS | high polyreactivity
9 | QVQLVESGGGLVQAGGSLRLSCAASGRTFRRNAMGWYRQAPGKERELVAAISWSGSRTYYADSVKGRFTISRDNAKKTVYLQMNSLKPEDTAVYYCAAEVWSTQGSATVQYDYLGQGTQVTVSS | high polyreactivity
10 | QVQLQESGRRPGAAGGSPRMSCAASGNIFWVAVMGRYRQAPGKERELVASIGFGCTTYYADSVKCRFTISRDNAKNTVFLQLISLKPEDTAVYYCAAPLYDWGELDDWGQGTQVPVSS | low polyreactivity
11 | QVQLVESGGGLVQAGGSLRLSCAASGRIFDLNAMGWYRQAPGKERELVAVIDSYGSTYYADSVKGRFTISRDNAKNTVYLQMNSQKPEDSAVYYCTKYWYSRHVRYWAYYAEQRYDYWGQGTQVTVSS | low polyreactivity
12 | QVQLVESGGGLVQAGGSLRLSCAASGRIFRTYAMGWYRQAPGKERELVASISWGGGSRTYADSVKGRFTISRDNAKNTVYLQMNSLKPEDTGVYYCAADVHYTFGMDYWGQGTQVTVSS | high polyreactivity
13 | QVQLEESGVGLVQAGGSLRLSCPASGRIIYRNAIVWYSQAPGKERELVAAITGSGGITYYADSVKGRFTISRDNAKNTVYLLMNSLKPEVTAVYYCAARAKFLSVPTYDNWGQGTQVTVSS | high polyreactivity
14 | QVQLVDSGGGLVQAGGSLSLICAASGSNFRYYAMGWYRKAPGKERELVDAINWSGGSTYYADSVKGRFTSSRDNAKNTVYLQMNSLKPEHTAVYSCNAVGWRSLHRDYWGQGTQVTLSS | high polyreactivity
15 | QVQLVESGGGLVQAGGSLRLSCAASGFTFPWYAMGWYRQAPGKERELVAAINTGGSTYYADSVKGRFTISRDNAKNTVYLQMNSLKPEDTAVYYCATLGRYRYLNTYYWGSHDYWGQGTQVTVSS | high polyreactivity
16 | QVQLVESGGGLVQAGGSLRLSCAASGLTFVVYAMGWYRQATGKERELVASITSSGGRTYYADSVKGRFTISRDNAKNTVYLQMTSLKPEDTAVYYCAAVRRRTRYGYRYDYWGQGTQVTVSS | high polyreactivity

Row | Sequence | polyreactivity (PSR sort gate)
17 | QVQLLESGGGLVQAGGSLRLSCAASGSTFDRYAMGWNRQAPGKEREFVAAITWGGGSTYYADSVKGRFTISRDNAKNTVYLKFNSLKPEDTAVYYCATRYGASFGYWVQGTQVTVSS | low polyreactivity
18 | QVQLVESGGGLVQAGGSLRLSCAASGFTLRGNAMGWYRQAPGKERELVAAISTGGSTYYADSVKGRFTISRDNAKNTVYLQMNSLKPEDTAVYYCARRGWFHYRYYYWGQGTQVTVSS | high polyreactivity
19 | QVQLVESGGGLVQAGGSLRLSCAASGRIFGGYAMGWYRQAPGKERELVAAISSGGNTKYADSVKGRFTISRDNAKNTVYLQMNSLKPEDTAVYYCAAAPYARREYEYWGQVTQVTVSS | high polyreactivity
20 | QVQLVESGGGLVQAGGSLRLSCAASGRIFNHYAMGWYRQAPGKERELVASITSGAGTNYADSVKGRFTISRDNAKNTVYLQMNSLKPEDTAVYYCNADLYDYYYSDGDYWGQGTQVTVSS | high polyreactivity
21 | QVQLQESGGGLVQAGGSLRLSCAASGFIFARNYIGWYRQAPGKERELVAGIGEGASTNYADSVKGRFTISRDNAKNTVYLQMNSLEPEDTAVYYCAVGDTVLGYHYYWGQGTQVTVSN | low polyreactivity
22 | QVQLVESGGGLVQAGGSLRLSCAASGRNFGYYTMGWYRQAPGKERELVARINYIGSSTYYADSVKGRFTISRDNAKNTVFLLMNSLKPEDTAVYYCAAETYYFGYGYWGQGTQVTVSS | high polyreactivity
23 | QVQLQESGGGLMQAGGSQRLSCAASGSISYYSDRGWYRQAPGKEREFVAGIGYGTTTNYADSVKGRFTTSRDNAKNTVYLQMICMKPEDTAVYYCAAYQGNGYEFYYWGQGTQVTVRS | low polyreactivity
24 | QVHLVESGGGIVQAGGSLRLSCAASGRTFVVYAMGWYRPATGKQLELVAAIRRIDGRTYYADSVKGRFTISRDNAKNTVYLQMNCLKPEDTAVYYCAADWVGATGYLYGYWGQGNQVTVSS | low polyreactivity
25 | QVQLVESGGGLVQAGGSLRLSCAASGRTFTRYAMGWYRQAPGKERELVAAISRGGSTYYADSVKGRFTISRDNAKNTVYLQMNSPKPEDTAVYYCAARYGTYTAGNYWGQGTQVTVSS | high polyreactivity
26 | QVQLVESGGGLVQAGGSLRLSCAASGRIFWKYTMGWYRQAPGKERELVAAIRSGGGSTYYADSVKGRFTISRDNAKNTVYLQLNSLKPEDTAFYYCAAEPSQRYPWSGYDYWGQGTQVTVSS | low polyreactivity
27 | QVQLVESGGGLVQAGGSLRLSCAASGFTFQFYAMGWYRQAPGKESELVASIRSGVGTYYADSVKGRFTISRDNAKNTVYLQMYCVKPEDTAVYYCNAVYNRFSRSYDYWGQGTQVTVSS | high polyreactivity
28 | QVQLVESRGGLVQAGGSLRLSCAASGSIFSYYPMGWYRQAPGKERELVAAISSRGGSTYYADSVKGRFTISRDNAKNTFYLQMNCLKPEDTAVYYCDDEWTSWFGVTYDYWGQGTQVTVSS | high polyreactivity
29 | QDQLVESGGGLVQAGGSLRLSCAASGSTFSIYAMGWYRQATGKERELVAAIPYSGGSTYYADSVKGRFTISRDNAKNTVYLQMNSLKPEDTAVYYCAAEVYDSRWWYSGATDDYWGQGTQVTVSS | high polyreactivity
30 | QVQLVESGGGLVQAGGSLRLSCAASGSTFYIYAMGWYRQAPGKERELVARITRGGTTYADSVKGRFTISRDNAKNTVYLQINSLKPEDTAVYYCAARSFNIRGRYDYWGQGTQVTVSS | high polyreactivity
31 | QLQLVDSGGGLVQAGGSLRLSCAASGLIFPAYTMGWYRQAPGKQRELVAAISRSGGSTYYADSVKGRFTISRDNAKNTVYLQMNSLKTEDTAVYYCAAFYSGGYDYWGQGTQVTVSS | high polyreactivity
32 | QVQLVESGGGLVQAGGSLRLSCAASGSTFFIYAMGWYRQAPGKERELVAAITWRGGTTYYADSVKGRFTISRDNAKNTVYLQMNSLKPEDTAVYYCNADPVDYANIVYYYDYNYWGQGTQVTVSS | low polyreactivity

Reference: the nanobody polyreactivity screen of Harvey et al. (2022)
